Results reported in publication PMC2175135.

Biological target: LexA-tpr-met-Gab1Cter Y473F Y590F (two-hybrid bait) (UniProt Q9QYY0)
Test: two-hybrid

COOH-terminal SH2 domain of p85α PI(3)K (two-hybrid prey) (from UniProt P26450 624-718) (domain or fragment)
percent of the interaction with Gab1Cter: 25%
